One assay addresses T1, rat AILIM (rat) (UniProt Q9R1T7).
T1 sequence (looked up): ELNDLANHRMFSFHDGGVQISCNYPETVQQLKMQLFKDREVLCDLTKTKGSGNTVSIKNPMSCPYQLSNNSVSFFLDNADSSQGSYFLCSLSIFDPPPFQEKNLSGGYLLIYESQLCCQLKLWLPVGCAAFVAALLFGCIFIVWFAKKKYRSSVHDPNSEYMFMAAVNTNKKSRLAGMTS
Kind of assay: cell ELISA on recombinant CHO cells overexpressing rat AILIM; given as ED50. On the technique in general: In an ELISA, binding on a coated surface is turned into a signal by an enzyme label.

Assay [1] deals with T2, human AILIM-IgFc (recombinant chimeric antigen of the extracellular region of human AILIM and the constant region (Fc) of human IgG1) (human) (UniProt Q9Y6W8).
T2 sequence (biotin-labeled in the inhibition ELISA of Example 14, looked up): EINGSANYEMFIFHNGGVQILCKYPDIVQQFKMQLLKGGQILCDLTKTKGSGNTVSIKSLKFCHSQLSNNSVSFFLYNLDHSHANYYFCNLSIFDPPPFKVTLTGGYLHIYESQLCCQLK
Kind of assay: SPR, Biacore X; human AILIM-IgFc immobilised on sensor chip, antibody in flow. A general note: In SPR one partner is held on a chip, and binding of the other changes the refractive index at the surface.

Assay [2] has as its target human AILIM (activation inducible lymphocyte immunomodulatory molecule) (human) (UniProt Q9Y6W8). Kind of assay: cell ELISA on recombinant CHO cells overexpressing human AILIM; given as ED50.
For another assay, the target named is T3, mouse AILIM (mouse) (UniProt Q9WVS0).
T3 sequence (looked up): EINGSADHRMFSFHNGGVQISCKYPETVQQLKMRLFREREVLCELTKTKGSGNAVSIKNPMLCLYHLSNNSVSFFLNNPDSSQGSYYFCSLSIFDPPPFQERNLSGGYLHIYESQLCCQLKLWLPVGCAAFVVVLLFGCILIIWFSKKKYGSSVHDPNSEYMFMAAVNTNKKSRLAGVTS
Kind of assay: cell ELISA on recombinant CHO cells overexpressing mouse AILIM; given as ED50.

This note sets out measurements from patent US20020102658A1.

For orientation: EC50 means the concentration needed to bring the measured effect to its halfway point. Usually Kd stands for the constant that tells how readily two partners part at equilibrium. As a reminder, the koff is the first-order rate constant of dissociation.

Positions count from the first letter of the chain named.

B1: human anti-human AILIM monoclonal antibody JMab-138 (clone AII289) (antibody, from another filing, human IgG2, V domains shown)
VH: EVQLVESGGGLVQPGGSLRLSCAASGFTFSSYDMHWVRQATGKGLEWVSAIGTAGDTYYPGSVKGRFTISRENAKNSLYLQMNSLRAGDTAVYYCVRDNRKVTHEHYYYYGMDVWGQGTTVTVSS
VL: EIVLTQSPGTLSLSPGERATLSCRASQNIRSSYLAWYQQKPGQAPGLLIYGASSRATGIPDRFSGSGSGTDFTLTISRLEPEDFAVYYCQQFGSSPMCSFGQGTKLEIKR
B1: the values for the EC50 (with rat AILIM (rat); in assay [2]; with mouse AILIM (mouse)) were 0.057 µg/mL, 0.0105 µg/mL and 0.053 µg/mL, respectively. Further, the Kd in assay [1] worked out at 1100 pM. In assay [1], the dissociation rate constant (koff) was found to be 4.2e-05 s⁻¹.

B2: human anti-human AILIM monoclonal antibody JMab-139 (clone AII394) (antibody, from another filing, human IgG2, V domains shown)
VH: B1 VH with N99K, K101T
VL: B1 VL with N28S, R30S, Y33S, Y50F
With B2, the EC50 with rat AILIM (rat) is 0.09 µg/mL; in assay [2], 0.0106 µg/mL; in the assay with mouse AILIM (mouse), 0.06 µg/mL. Further, the dissociation constant (Kd) in assay [1] stood at 770 pM. Moreover, the koff in assay [1] was determined as 2.4e-05 s⁻¹.
